Usually IC50 stands for the concentration needed to halve the response being measured. Broadly, the Kd is the equilibrium constant for the complex coming apart.

Assay [1] addresses T1, integrin α5β1 ectodomain (soluble) (human, UniProt P08648;P05556).
T1 construct: human integrin α5 ectodomain; N-terminal secretion peptide and HRV3C digestion site in the construct; human integrin β1 ectodomain; source: Expi293F, transiently transfected, purified from culture supernatant (Ni-NTA, size-exclusion chromatography)
The assay is described as follows: fluorescence polarisation; competition with 10 nM FITC-cyclic-… binding to soluble integrin ectodomains in solution (50 nM α5β1, 200 nM αVβ1, 20 nM αVβ3, 20 nM αVβ5); global three-parameter dose-response fit. To be noted: both partners purified. A general note: In fluorescence polarisation assays a small probe gives low polarisation when free and higher when bound to something large.

Assay [2] addresses T2, integrin αVβ3 ectodomain (soluble) (human, UniProt P06756;P05106).
T2 construct: human integrin αV ectodomain; N-terminal secretion peptide and HRV3C digestion site in the construct; human integrin β3 ectodomain; source: Expi293F, transiently transfected, purified from culture supernatant (Ni-NTA, size-exclusion chromatography)
The assay is described as above. Particulars: both partners purified.

The target in assay [3] is T3, integrin αVβ1, intact, on K562 αVβ1 stable transfectants (human, UniProt P06756;P05556).
T3 construct: integrin αV subunit; integrin β1 subunit; the cells also express native α5β1, whose share the legend calls negligible
The assay is described as follows: flow cytometry on cells; intact integrins on K562 cells in L15 medium with 1% BSA, without Mn2+, no washing; titrator's binding read as enhancement of binding of fluorescent 9EG7 Fab (10 nM); EC50 of a three-parameter dose-response fit taken as Kd. To be noted: one partner purified.

Assay [4] has as its target T4, integrin α5β1, intact, on wild type K562 cells (human (endogenous in K562), UniProt P08648;P05556).
T4 construct: integrin α5 subunit, natively expressed on K562 cells; integrin β1 subunit, natively expressed on K562 cells; also called K562 WT (α5β1); K562 WT; source: endogenous, on wild type K562 cells
The assay is described as above. To be noted: one partner purified.

In assay [5] the target is T3, integrin αVβ1, intact, on K562 αVβ1 …. The assay is described as follows: flow cytometry on cells; intact integrins on K562 cells in L15 medium with 1% BSA and 1 mM Mn2+, no washing; titrator's binding read as enhancement of binding of AF647-9EG7 Fab (10 nM); EC50 of a three-parameter dose-response fit taken as Kd. Particulars: one partner purified. A general note: Flow cytometry measures light scatter and fluorescence of single cells or particles in a stream.

Assay [6] concerns the target T4, integrin α5β1, intact, on wild type …. The description is as above. To be noted: one partner purified.
In assay [7] the target is T5, integrin α5β1 ectodomain (soluble) (human, UniProt P08648 42-995; P05556 21-728).
T5 construct: human integrin α5 ectodomain; N-terminal secretion peptide and HRV3C digestion site in the construct; human integrin β1 ectodomain; source: Expi293F, transiently transfected, purified from culture supernatant (Ni-NTA, size-exclusion chromatography)
The assay is described as follows: fluorescence polarisation; competition with 10 nM FITC-cyclic-… binding to soluble integrin ectodomains in solution (50 nM α5β1, 200 nM αVβ1, 20 nM αVβ3, 20 nM αVβ5); global three-parameter dose-response fit. Particulars: both partners purified.

In assay [8] the target is T6, integrin α5β1, intact, on wild type K562 cells (human (endogenous in K562), UniProt P08648 42-1049; P05556 21-798).
T6 construct: integrin α5 subunit, natively expressed on K562 cells; integrin β1 subunit, natively expressed on K562 cells; also called K562 WT (α5β1); K562 WT; source: endogenous, on wild type K562 cells
The assay is described as follows: flow cytometry on cells; intact integrins on K562 cells in L15 medium with 1% BSA, without Mn2+, no washing; titrator's binding read as enhancement of binding of fluorescent 9EG7 Fab (10 nM); EC50 of a three-parameter dose-response fit taken as Kd. Particulars: one partner purified.

Assay [9] addresses T6, integrin α5β1, intact, on wild type …. The assay is described as follows: flow cytometry on cells; intact integrins on K562 cells in L15 medium with 1% BSA and 1 mM Mn2+, no washing; titrator's binding read as enhancement of binding of AF647-9EG7 Fab (10 nM); EC50 of a three-parameter dose-response fit taken as Kd. To be noted: one partner purified.

Non-standard residues stand in square brackets, D forms with d.

T3 sequence (P06756 31-1048, chain 1 of 2): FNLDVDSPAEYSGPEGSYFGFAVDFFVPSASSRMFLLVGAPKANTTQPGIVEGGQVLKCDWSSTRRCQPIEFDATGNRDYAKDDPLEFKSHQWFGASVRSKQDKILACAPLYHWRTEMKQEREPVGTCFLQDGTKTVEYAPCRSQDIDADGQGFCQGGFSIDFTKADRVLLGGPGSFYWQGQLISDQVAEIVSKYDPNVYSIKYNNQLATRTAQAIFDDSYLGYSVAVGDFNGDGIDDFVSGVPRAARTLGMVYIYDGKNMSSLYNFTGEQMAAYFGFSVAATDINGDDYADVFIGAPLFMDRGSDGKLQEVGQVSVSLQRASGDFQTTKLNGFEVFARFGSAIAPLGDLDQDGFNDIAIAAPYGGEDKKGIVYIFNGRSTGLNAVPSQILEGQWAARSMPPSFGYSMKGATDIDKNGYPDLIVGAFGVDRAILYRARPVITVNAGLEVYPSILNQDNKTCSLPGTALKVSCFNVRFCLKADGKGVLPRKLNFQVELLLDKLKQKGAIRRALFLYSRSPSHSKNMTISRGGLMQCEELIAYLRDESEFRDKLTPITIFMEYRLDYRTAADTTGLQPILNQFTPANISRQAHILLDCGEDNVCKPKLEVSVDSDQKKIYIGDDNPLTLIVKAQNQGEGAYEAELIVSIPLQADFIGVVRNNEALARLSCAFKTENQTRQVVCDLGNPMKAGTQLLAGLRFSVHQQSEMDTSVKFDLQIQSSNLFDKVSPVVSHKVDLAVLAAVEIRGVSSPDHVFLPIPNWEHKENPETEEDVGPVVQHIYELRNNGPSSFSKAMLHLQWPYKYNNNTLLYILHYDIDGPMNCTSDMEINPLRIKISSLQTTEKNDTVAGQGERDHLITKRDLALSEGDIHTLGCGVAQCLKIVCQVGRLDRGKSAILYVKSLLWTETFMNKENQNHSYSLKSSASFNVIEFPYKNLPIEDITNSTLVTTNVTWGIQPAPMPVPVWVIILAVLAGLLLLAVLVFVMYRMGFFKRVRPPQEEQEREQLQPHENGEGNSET
T3 sequence (P05556 21-798, chain 2 of 2): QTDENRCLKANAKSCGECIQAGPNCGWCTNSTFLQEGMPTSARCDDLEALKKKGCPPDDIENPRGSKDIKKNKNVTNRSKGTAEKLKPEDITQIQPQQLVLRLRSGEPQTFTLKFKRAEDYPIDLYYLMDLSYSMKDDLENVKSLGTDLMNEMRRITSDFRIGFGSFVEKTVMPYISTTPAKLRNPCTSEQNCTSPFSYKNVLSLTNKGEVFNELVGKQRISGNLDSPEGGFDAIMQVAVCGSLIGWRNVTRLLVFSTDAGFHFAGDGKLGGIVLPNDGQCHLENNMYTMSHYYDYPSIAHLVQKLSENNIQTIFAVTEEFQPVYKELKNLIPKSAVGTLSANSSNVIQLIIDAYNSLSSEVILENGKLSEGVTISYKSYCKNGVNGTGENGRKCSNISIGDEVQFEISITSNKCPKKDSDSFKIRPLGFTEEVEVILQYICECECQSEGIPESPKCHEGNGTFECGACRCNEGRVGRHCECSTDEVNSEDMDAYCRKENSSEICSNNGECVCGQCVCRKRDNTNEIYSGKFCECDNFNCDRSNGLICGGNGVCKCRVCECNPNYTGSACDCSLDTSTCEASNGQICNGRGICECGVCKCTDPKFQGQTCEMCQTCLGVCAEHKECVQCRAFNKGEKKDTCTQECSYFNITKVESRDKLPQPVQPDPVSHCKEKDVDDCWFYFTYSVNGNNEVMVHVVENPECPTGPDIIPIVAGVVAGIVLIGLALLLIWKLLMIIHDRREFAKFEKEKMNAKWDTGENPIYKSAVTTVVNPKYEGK
T4 sequence (P08648 42-1049, chain 1 of 2): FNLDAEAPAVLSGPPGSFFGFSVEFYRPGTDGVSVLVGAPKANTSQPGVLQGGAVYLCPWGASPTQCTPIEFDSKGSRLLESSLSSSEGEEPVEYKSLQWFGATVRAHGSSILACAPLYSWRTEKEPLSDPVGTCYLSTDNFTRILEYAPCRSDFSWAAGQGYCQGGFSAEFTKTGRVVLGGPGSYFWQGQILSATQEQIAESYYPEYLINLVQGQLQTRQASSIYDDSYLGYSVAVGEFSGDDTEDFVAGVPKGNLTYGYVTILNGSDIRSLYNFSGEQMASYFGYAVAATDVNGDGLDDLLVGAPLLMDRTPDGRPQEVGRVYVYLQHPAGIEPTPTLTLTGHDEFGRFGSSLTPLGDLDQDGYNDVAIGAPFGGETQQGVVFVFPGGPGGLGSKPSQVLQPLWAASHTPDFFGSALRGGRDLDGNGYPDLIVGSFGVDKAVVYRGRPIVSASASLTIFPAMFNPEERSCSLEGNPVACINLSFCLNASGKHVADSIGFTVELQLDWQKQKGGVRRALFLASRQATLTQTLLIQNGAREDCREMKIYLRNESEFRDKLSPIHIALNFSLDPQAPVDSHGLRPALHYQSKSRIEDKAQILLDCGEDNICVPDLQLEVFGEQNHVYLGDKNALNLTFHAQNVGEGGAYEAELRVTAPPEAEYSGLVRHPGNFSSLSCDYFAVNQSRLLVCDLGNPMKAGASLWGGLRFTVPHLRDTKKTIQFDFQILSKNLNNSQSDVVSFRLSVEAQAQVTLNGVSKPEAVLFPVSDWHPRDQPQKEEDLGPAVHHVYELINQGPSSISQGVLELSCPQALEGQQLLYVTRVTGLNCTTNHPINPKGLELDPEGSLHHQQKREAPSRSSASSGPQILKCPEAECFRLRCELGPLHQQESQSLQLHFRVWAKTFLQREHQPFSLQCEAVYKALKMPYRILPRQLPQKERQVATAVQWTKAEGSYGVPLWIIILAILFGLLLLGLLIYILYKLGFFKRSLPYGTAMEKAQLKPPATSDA
T4 sequence (P05556 21-798, chain 2 of 2): as the sequence (P05556 21-798, chain 2 of 2) above
T6 sequence (P08648 42-1049, chain 1 of 2): as the sequence (P08648 42-1049, chain 1 of 2) above
T6 sequence (P05556 21-798, chain 2 of 2): as the sequence (P05556 21-798, chain 2 of 2) above
T1 sequence (P08648 42-995, chain 1 of 2): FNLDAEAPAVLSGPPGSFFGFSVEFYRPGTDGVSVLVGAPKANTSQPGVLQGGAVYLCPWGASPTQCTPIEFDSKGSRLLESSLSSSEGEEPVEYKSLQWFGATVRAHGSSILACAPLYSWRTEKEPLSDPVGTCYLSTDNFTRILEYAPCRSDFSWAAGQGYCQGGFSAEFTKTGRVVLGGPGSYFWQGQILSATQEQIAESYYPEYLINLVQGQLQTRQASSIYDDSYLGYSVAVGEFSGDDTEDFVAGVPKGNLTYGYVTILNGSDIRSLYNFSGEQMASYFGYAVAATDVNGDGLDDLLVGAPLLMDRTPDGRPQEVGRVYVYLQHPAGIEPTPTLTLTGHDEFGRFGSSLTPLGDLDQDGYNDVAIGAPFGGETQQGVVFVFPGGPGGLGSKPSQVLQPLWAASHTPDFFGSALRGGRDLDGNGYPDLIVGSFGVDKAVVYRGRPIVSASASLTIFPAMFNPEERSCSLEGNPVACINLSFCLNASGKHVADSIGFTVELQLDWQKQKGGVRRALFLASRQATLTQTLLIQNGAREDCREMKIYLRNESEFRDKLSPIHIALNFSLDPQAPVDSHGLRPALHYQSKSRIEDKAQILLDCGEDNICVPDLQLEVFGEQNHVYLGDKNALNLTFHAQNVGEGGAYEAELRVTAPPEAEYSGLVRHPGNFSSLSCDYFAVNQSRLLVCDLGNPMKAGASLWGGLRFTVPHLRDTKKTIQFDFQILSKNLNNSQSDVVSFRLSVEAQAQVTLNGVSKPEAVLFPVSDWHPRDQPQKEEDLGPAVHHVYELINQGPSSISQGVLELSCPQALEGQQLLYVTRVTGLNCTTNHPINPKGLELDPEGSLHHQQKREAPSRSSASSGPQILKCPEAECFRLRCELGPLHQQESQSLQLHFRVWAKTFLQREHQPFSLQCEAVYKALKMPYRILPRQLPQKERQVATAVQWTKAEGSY
T1 sequence (P05556 21-728, chain 2 of 2): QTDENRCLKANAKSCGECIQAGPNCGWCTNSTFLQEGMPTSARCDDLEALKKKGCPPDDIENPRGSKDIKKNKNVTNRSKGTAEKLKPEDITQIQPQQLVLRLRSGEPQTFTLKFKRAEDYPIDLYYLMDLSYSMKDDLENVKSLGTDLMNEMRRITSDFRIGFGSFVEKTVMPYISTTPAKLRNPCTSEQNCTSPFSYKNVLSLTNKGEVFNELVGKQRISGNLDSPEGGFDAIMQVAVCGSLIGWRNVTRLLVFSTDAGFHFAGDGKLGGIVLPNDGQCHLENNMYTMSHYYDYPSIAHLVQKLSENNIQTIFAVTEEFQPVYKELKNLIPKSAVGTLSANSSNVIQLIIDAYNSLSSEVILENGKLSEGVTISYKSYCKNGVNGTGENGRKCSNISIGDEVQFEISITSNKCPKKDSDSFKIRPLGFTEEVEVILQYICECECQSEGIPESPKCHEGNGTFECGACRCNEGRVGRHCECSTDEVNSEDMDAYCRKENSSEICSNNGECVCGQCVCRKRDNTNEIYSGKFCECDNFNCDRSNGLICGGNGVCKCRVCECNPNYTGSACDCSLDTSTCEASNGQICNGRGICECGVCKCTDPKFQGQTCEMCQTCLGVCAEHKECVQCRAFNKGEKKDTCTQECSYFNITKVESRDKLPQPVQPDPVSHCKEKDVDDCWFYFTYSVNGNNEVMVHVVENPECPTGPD
T5 sequence (P08648 42-995, chain 1 of 2): as the sequence (P08648 42-995, chain 1 of 2) above
T5 sequence (P05556 21-728, chain 2 of 2): as the sequence (P05556 21-728, chain 2 of 2) above

B1: Biogen-αVβ1.5 Fab (Fab, V domains shown)
VH: EVQLVESGGGVVQPGRSLRLSCAASGFTFKYYGMHWVRQAPGKGLEWVASIWYDGSNKKYADSVKGRFTISRDNSKNTLYLQMNSLRAEDTAVYYCARGGPTRGDGTRVYYYGMDVWGQGTTVTVSS
VL: EIVMTQSPATLSVSPGERATLSCRASQSVSSNLAWYQQKPGQAPRLLIYSASTRATGIPARFSGSGSGTEFTLTISSLQSEDFAVYYCQQYYHHPFTFGGGTKVEIK
notes: heavy chain before CDR3; heavy-chain CDR3 (RGD motif highlighted); heavy chain after CDR3 up to the papain cut (IgG1); light chain; Expressed as IgG1 and cut to Fab with papain; also called Exemplary Antibody 5; anti-αVβ1; source: Expi293F, recombinantly expressed as IgG1; Fab generated with papain, purified (Hi-Trap Q)
Take B1: the IC50 turned out to be 0.2 ± 0.1 µM in assay [1] and 21 ± 3 µM in assay [2]. Also, the Kd in assay [3] was determined as 0.117 µM; in assay [4] it was 19 µM; in assay [5] it was 0.0236 µM; in [6], 4.3 µM.

B2: cRGDfK peptide, cyclo[Arg-Gly-Asp-D-Phe-Lys] (peptide)
peptide: cyclo(RGD[dF]K)
notes: cyclic pentapeptide, a cilengitide analog; f = D-Phe; Unlabelled soluble peptide used as titrator
Regarding B2, the IC50 in assay [7] was determined as 1.2 ± 0.5 µM. Besides, the Kd in assay [8] was 610 µM; in assay [9], 11 µM.
